# Experimental data published in patent publication US20220356216A1.
# Tests used:
# [1] = molecular target: mRFP1-sspB-Nano (mRFP1 fused to the sspB-Nano protein, his-MBP removed by TEV protease); assay: fluorescence microscopy of RFP-sspB-Nano recruitment to synthetic cells with membrane-bound protein; activation by coelenterazine (bioluminescence)
# [2] = molecular target: mRFP1-sspB-Nano (mRFP1 fused to the sspB-Nano protein, his-MBP removed by TEV protease); assay: fluorescence microscopy of RFP-sspB-Nano recruitment to synthetic cells with membrane-bound protein; activation by blue laser light
# [3] = molecular target: mRFP1-sspB-Nano (mRFP1 fused to the sspB-Nano protein, his-MBP removed by TEV protease); assay: fluorescence microscopy of RFP-sspB-Nano recruitment to synthetic cells with membrane-bound protein; activation by 488 nm laser
fold increase of normalized mRFP1 intensity at the membrane against the dark conditions [1] [fold],fold difference of mRFP1 intensity between dark and light conditions [2] [fold],fold increase of mRFP1 signal at the membrane against the dark conditions [3] [fold],Substance
2.5,> 8,,his-Gluc-iLID (fusion of N-terminal Gaussia luciferase and C-terminal iLID with a linker peptide and an N-terminal his-tag)
,,1.5,his-iLID (his-tagged improved light-induced dimer)
